Reference: patent US20210032299A1 (Eli Lilly, published 2021)
Where a chain is given by its changes, count along the chain named. Starred links: 1 amine or outer side, 2 acyl side, 3 side chain; linkers in the order of their positions; H or OH if unused. Non-standard residues stand in square brackets, D forms with d. Groups on a side chain read outwards from the residue. No end group written: not given here. *: point of attachment. C20 diacid = O=C(O)CCCCCCCCCCCCCCCCCCC(=O)*; C18 diacid = O=C(O)CCCCCCCCCCCCCCCCC(=O)*; γGlu = O=C(O)[C@H](CCC(=O)[*:2])N[*:1]; 4Pal = N[C@@H](Cc1ccncc1)C(=O)O; AEEA = NCCOCCOCC(=O)O; Aib = CC(C)(N)C(=O)O

T1: human glucose-dependent insulinotropic peptide receptor (human, UniProt P48546 22-466)
T1 sequence (looked up): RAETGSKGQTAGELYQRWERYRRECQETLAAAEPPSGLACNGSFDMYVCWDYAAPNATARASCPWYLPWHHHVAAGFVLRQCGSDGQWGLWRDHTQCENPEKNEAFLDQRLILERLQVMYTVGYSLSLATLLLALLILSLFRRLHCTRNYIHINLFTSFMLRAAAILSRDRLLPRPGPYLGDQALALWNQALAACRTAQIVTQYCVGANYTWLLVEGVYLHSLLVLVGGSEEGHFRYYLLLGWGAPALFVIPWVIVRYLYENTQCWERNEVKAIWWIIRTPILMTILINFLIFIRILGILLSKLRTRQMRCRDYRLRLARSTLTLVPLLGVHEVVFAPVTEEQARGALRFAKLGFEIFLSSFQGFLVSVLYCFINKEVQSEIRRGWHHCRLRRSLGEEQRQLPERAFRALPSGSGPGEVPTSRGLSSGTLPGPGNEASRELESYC

B1: Example 13 (peptide)
peptide: Y[dA]EGTFISDYSILLDKK([AEEA-AEEA-γGlu-C20 diacid])HQQEFVNWLLAQGPSSGAPPPS-NH2
modifications: N-terminus assumed
SMILES: CC[C@H](C)[C@H](NC(=O)[C@H](CO)NC(=O)[C@H](Cc1ccc(O)cc1)NC(=O)[C@H](CC(=O)O)NC(=O)[C@H](CO)NC(=O)[C@@H](NC(=O)[C@H](Cc1ccccc1)NC(=O)[C@@H](NC(=O)CNC(=O)[C@H](CCC(=O)O)NC(=O)[C@@H](C)NC(=O)[C@@H](N)Cc1ccc(O)cc1)[C@@H](C)O)[C@@H](C)CC)C(=O)N[C@@H](CC(C)C)C(=O)N[C@@H](CC(C)C)C(=O)N[C@@H](CC(=O)O)C(=O)N[C@@H](CCCCN)C(=O)N[C@@H](CCCCNC(=O)COCCOCCNC(=O)COCCOCCNC(=O)CC[C@H](NC(=O)CCCCCCCCCCCCCCCCCCC(=O)O)C(=O)O)C(=O)N[C@@H](Cc1c[nH]cn1)C(=O)N[C@@H](CCC(N)=O)C(=O)N[C@@H](CCC(N)=O)C(=O)N[C@@H](CCC(=O)O)C(=O)N[C@@H](Cc1ccccc1)C(=O)N[C@H](C(=O)N[C@@H](CC(N)=O)C(=O)N[C@@H](Cc1c[nH]c2ccccc12)C(=O)N[C@@H](CC(C)C)C(=O)N[C@@H](CC(C)C)C(=O)N[C@@H](C)C(=O)N[C@@H](CCC(N)=O)C(=O)NCC(=O)N1CCC[C@H]1C(=O)N[C@@H](CO)C(=O)N[C@@H](CO)C(=O)NCC(=O)N[C@@H](C)C(=O)N1CCC[C@H]1C(=O)N1CCC[C@H]1C(=O)N1CCC[C@H]1C(=O)N[C@@H](CO)C(N)=O)C(C)C
B2: Example 22 (peptide)
peptide: Y[Aib]EGTFISDYSILLDKK([AEEA-AEEA-γGlu-C18 diacid])HQ[Aib]DFVE[4Pal]LLAGGPSSGAPPPS-NH2
modifications: N-terminus assumed
SMILES: CC[C@H](C)[C@H](NC(=O)[C@H](CO)NC(=O)[C@H](Cc1ccc(O)cc1)NC(=O)[C@H](CC(=O)O)NC(=O)[C@H](CO)NC(=O)[C@@H](NC(=O)[C@H](Cc1ccccc1)NC(=O)[C@@H](NC(=O)CNC(=O)[C@H](CCC(=O)O)NC(=O)C(C)(C)NC(=O)[C@@H](N)Cc1ccc(O)cc1)[C@@H](C)O)[C@@H](C)CC)C(=O)N[C@@H](CC(C)C)C(=O)N[C@@H](CC(C)C)C(=O)N[C@@H](CC(=O)O)C(=O)N[C@@H](CCCCN)C(=O)N[C@@H](CCCCNC(=O)COCCOCCNC(=O)COCCOCCNC(=O)CC[C@H](NC(=O)CCCCCCCCCCCCCCCCC(=O)O)C(=O)O)C(=O)N[C@@H](Cc1c[nH]cn1)C(=O)N[C@@H](CCC(N)=O)C(=O)NC(C)(C)C(=O)N[C@@H](CC(=O)O)C(=O)N[C@@H](Cc1ccccc1)C(=O)N[C@H](C(=O)N[C@@H](CCC(=O)O)C(=O)N[C@@H](Cc1ccncc1)C(=O)N[C@@H](CC(C)C)C(=O)N[C@@H](CC(C)C)C(=O)N[C@@H](C)C(=O)NCC(=O)NCC(=O)N1CCC[C@H]1C(=O)N[C@@H](CO)C(=O)N[C@@H](CO)C(=O)NCC(=O)N[C@@H](C)C(=O)N1CCC[C@H]1C(=O)N1CCC[C@H]1C(=O)N1CCC[C@H]1C(=O)N[C@@H](CO)C(N)=O)C(C)C
B3: Example 21 (peptide)
peptide: Y[Aib]EGTFISDYSIALDKK([AEEA-AEEA-γGlu-C18 diacid])HQ[Aib]DFVE[4Pal]LLAGGPSSGAPPPS-NH2
modifications: N-terminus assumed
SMILES: CC[C@H](C)[C@H](NC(=O)[C@H](CO)NC(=O)[C@H](Cc1ccc(O)cc1)NC(=O)[C@H](CC(=O)O)NC(=O)[C@H](CO)NC(=O)[C@@H](NC(=O)[C@H](Cc1ccccc1)NC(=O)[C@@H](NC(=O)CNC(=O)[C@H](CCC(=O)O)NC(=O)C(C)(C)NC(=O)[C@@H](N)Cc1ccc(O)cc1)[C@@H](C)O)[C@@H](C)CC)C(=O)N[C@@H](C)C(=O)N[C@@H](CC(C)C)C(=O)N[C@@H](CC(=O)O)C(=O)N[C@@H](CCCCN)C(=O)N[C@@H](CCCCNC(=O)COCCOCCNC(=O)COCCOCCNC(=O)CC[C@H](NC(=O)CCCCCCCCCCCCCCCCC(=O)O)C(=O)O)C(=O)N[C@@H](Cc1c[nH]cn1)C(=O)N[C@@H](CCC(N)=O)C(=O)NC(C)(C)C(=O)N[C@@H](CC(=O)O)C(=O)N[C@@H](Cc1ccccc1)C(=O)N[C@H](C(=O)N[C@@H](CCC(=O)O)C(=O)N[C@@H](Cc1ccncc1)C(=O)N[C@@H](CC(C)C)C(=O)N[C@@H](CC(C)C)C(=O)N[C@@H](C)C(=O)NCC(=O)NCC(=O)N1CCC[C@H]1C(=O)N[C@@H](CO)C(=O)N[C@@H](CO)C(=O)NCC(=O)N[C@@H](C)C(=O)N1CCC[C@H]1C(=O)N1CCC[C@H]1C(=O)N1CCC[C@H]1C(=O)N[C@@H](CO)C(N)=O)C(C)C
B4: Example 14 (peptide)
peptide: Y[dA]EGTFISDYSILLDKK([AEEA-AEEA-γGlu-C20 diacid])HQQDFVEWLLAQGPSSGAPPPS-NH2
modifications: N-terminus assumed
SMILES: CC[C@H](C)[C@H](NC(=O)[C@H](CO)NC(=O)[C@H](Cc1ccc(O)cc1)NC(=O)[C@H](CC(=O)O)NC(=O)[C@H](CO)NC(=O)[C@@H](NC(=O)[C@H](Cc1ccccc1)NC(=O)[C@@H](NC(=O)CNC(=O)[C@H](CCC(=O)O)NC(=O)[C@@H](C)NC(=O)[C@@H](N)Cc1ccc(O)cc1)[C@@H](C)O)[C@@H](C)CC)C(=O)N[C@@H](CC(C)C)C(=O)N[C@@H](CC(C)C)C(=O)N[C@@H](CC(=O)O)C(=O)N[C@@H](CCCCN)C(=O)N[C@@H](CCCCNC(=O)COCCOCCNC(=O)COCCOCCNC(=O)CC[C@H](NC(=O)CCCCCCCCCCCCCCCCCCC(=O)O)C(=O)O)C(=O)N[C@@H](Cc1c[nH]cn1)C(=O)N[C@@H](CCC(N)=O)C(=O)N[C@@H](CCC(N)=O)C(=O)N[C@@H](CC(=O)O)C(=O)N[C@@H](Cc1ccccc1)C(=O)N[C@H](C(=O)N[C@@H](CCC(=O)O)C(=O)N[C@@H](Cc1c[nH]c2ccccc12)C(=O)N[C@@H](CC(C)C)C(=O)N[C@@H](CC(C)C)C(=O)N[C@@H](C)C(=O)N[C@@H](CCC(N)=O)C(=O)NCC(=O)N1CCC[C@H]1C(=O)N[C@@H](CO)C(=O)N[C@@H](CO)C(=O)NCC(=O)N[C@@H](C)C(=O)N1CCC[C@H]1C(=O)N1CCC[C@H]1C(=O)N1CCC[C@H]1C(=O)N[C@@H](CO)C(N)=O)C(C)C
B5: Example 15 (peptide)
peptide: Y[dA]EGTFISDYSILLDKK([AEEA-AEEA-γGlu-C20 diacid])HQQDFVNYLLAQGPSSGAPPPS-NH2
modifications: N-terminus assumed
SMILES: CC[C@H](C)[C@H](NC(=O)[C@H](CO)NC(=O)[C@H](Cc1ccc(O)cc1)NC(=O)[C@H](CC(=O)O)NC(=O)[C@H](CO)NC(=O)[C@@H](NC(=O)[C@H](Cc1ccccc1)NC(=O)[C@@H](NC(=O)CNC(=O)[C@H](CCC(=O)O)NC(=O)[C@@H](C)NC(=O)[C@@H](N)Cc1ccc(O)cc1)[C@@H](C)O)[C@@H](C)CC)C(=O)N[C@@H](CC(C)C)C(=O)N[C@@H](CC(C)C)C(=O)N[C@@H](CC(=O)O)C(=O)N[C@@H](CCCCN)C(=O)N[C@@H](CCCCNC(=O)COCCOCCNC(=O)COCCOCCNC(=O)CC[C@H](NC(=O)CCCCCCCCCCCCCCCCCCC(=O)O)C(=O)O)C(=O)N[C@@H](Cc1c[nH]cn1)C(=O)N[C@@H](CCC(N)=O)C(=O)N[C@@H](CCC(N)=O)C(=O)N[C@@H](CC(=O)O)C(=O)N[C@@H](Cc1ccccc1)C(=O)N[C@H](C(=O)N[C@@H](CC(N)=O)C(=O)N[C@@H](Cc1ccc(O)cc1)C(=O)N[C@@H](CC(C)C)C(=O)N[C@@H](CC(C)C)C(=O)N[C@@H](C)C(=O)N[C@@H](CCC(N)=O)C(=O)NCC(=O)N1CCC[C@H]1C(=O)N[C@@H](CO)C(=O)N[C@@H](CO)C(=O)NCC(=O)N[C@@H](C)C(=O)N1CCC[C@H]1C(=O)N1CCC[C@H]1C(=O)N1CCC[C@H]1C(=O)N[C@@H](CO)C(N)=O)C(C)C
B6: Example 16 (peptide)
peptide: YXEGTFISDYSILLDKKAQXDFVEWLLAQGPSSGAPPPS
modifications: D-Ala2; K17((2-[2-(2-Amino-ethoxy)-ethoxy]-acetyl)2-(γ-Glu)-CO-(CH2)16-CO2H); Aib20; C-terminal amide
B7: Example 19 (peptide)
peptide: B6 peptide with E24N, Q29G
modifications: D-Ala2; K17((2-[2-(2-Amino-ethoxy)-ethoxy]-acetyl)2-(γ-Glu)-CO-(CH2)16-CO2H); Aib20; C-terminal amide
B8: Example 17 (peptide)
peptide: B6 peptide with E24N, A28E
modifications: D-Ala2; K17((2-[2-(2-Amino-ethoxy)-ethoxy]-acetyl)2-(γ-Glu)-CO-(CH2)16-CO2H); Aib20; C-terminal amide
B9: Example 18 (peptide)
peptide: B6 peptide with E24N, W25X
modifications: D-Ala2; K17((2-[2-(2-Amino-ethoxy)-ethoxy]-acetyl)2-(γ-Glu)-CO-(CH2)16-CO2H); Aib20; 4-Pal25; C-terminal amide
B10: Example 20 (peptide)
peptide: B6 peptide with D21E, E24N
modifications: D-Ala2; K17((2-[2-(2-Amino-ethoxy)-ethoxy]-acetyl)2-(γ-Glu)-CO-(CH2)16-CO2H); Aib20; C-terminal amide

Molecular target: human glucagon receptor (human, UniProt P47871 26-477)
Sequence (P47871 26-477): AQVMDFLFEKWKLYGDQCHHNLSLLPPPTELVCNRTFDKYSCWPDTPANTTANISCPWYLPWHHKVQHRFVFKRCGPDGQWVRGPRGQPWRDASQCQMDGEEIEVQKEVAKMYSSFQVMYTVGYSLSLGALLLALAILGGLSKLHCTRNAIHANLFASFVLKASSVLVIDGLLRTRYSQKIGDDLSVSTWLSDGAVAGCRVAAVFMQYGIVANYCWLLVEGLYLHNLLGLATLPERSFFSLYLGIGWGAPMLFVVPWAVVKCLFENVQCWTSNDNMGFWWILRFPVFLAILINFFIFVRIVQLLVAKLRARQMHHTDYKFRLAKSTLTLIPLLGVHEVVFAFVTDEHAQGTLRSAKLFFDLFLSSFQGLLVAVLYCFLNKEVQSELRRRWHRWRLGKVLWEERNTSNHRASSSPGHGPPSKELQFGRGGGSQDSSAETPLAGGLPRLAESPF
Assay: cell-based or functional assay

| Binder | hGcgR cAMP Rel EC50 |
| --- | --- |
| B1 | > 5000 nM |
| B2 | 1250 nM |
| B3 | > 5000 nM |
| B4 | > 5000 nM |
| B5 | > 5000 nM |
| B6 | > 5000 nM |
| B7 | > 5000 nM |
| B8 | > 5000 nM |
| B9 | > 5000 nM |
| B10 | > 5000 nM |

Molecular target: T1, human glucose-dependent insulinotropic …
Assay: cell-based or functional assay

| Binder | hGIPR cAMP Rel EC50 |
| --- | --- |
| B1 | 0.129 nM |
| B2 | 0.0345 nM |
| B3 | 0.291 nM |
| B4 | 0.34 nM |
| B5 | 0.282 nM |
| B6 | 0.00937 nM |
| B7 | 0.00992 nM |
| B8 | 0.0135 nM |
| B9 | 0.00656 nM |
| B10 | 0.00933 nM |

Molecular target: human GLP-1 receptor (human, UniProt P43220 24-463)
Assay: cell-based or functional assay

| Binder | hGLP1R cAMP Rel EC50 |
| --- | --- |
| B1 | > 100 nM |
| B2 | > 5000 nM |
| B3 | > 5000 nM |
| B4 | > 100 nM |
| B5 | > 100 nM |
| B6 | > 5000 nM |
| B7 | > 5000 nM |
| B8 | > 5000 nM |
| B9 | > 5000 nM |
| B10 | > 5000 nM |
